According to patent US8209131B2, “Therapeutic heparins and their binding to interleukins 4 and 5 and PECAM-1” (Curtin University of Technology, priority 2004, dated 2012):
Numbering of substitutions follows the chain as printed. Names and notes keep the numbering of the source.

B1: R85A: IL-4 mutant, baculovirus expressed (protein)
chain: HKCDITLQEIIKTLNSLTEQKTLCTELTVTDIFAASKNTTEKETFCRAATVLRQFYSHHEKDTRCLGATAQQFHRHKQLIRFLKALDRNLWGLAGLNSCPVKEANQSTLENFLERLKTIMREKYSKCSS
B2: R75A: IL-4 mutant, baculovirus expressed (protein)
chain: B1 chain with R75A, A85R
B3: K42A: IL-4 mutant, baculovirus expressed (protein)
chain: B1 chain with K42A, A85R
B4: R53A: IL-4 mutant, baculovirus expressed (protein)
chain: B1 chain with R53A, A85R
B5: K77A/R81A: IL-4 double mutant (protein)
chain: B1 chain with K77A, R81A, A85R
B6: E9A: IL-4 mutant, baculovirus expressed (protein)
chain: B1 chain with E9A, A85R
B7: R121A: IL-4 mutant, baculovirus expressed (protein)
chain: B1 chain with A85R, R121A
B8: K77A/K84A: IL-4 double mutant (protein)
chain: B1 chain with K77A, K84A, A85R
B9: K77A/R53A: IL-4 double mutant (protein)
chain: B1 chain with R53A, K77A, A85R
B10: K77A: IL-4 mutant, baculovirus expressed (protein)
chain: B1 chain with K77A, A85R
B11: K12A: IL-4 mutant, baculovirus expressed (protein)
chain: B1 chain with K12A, A85R
B12: K84A: IL-4 mutant, baculovirus expressed (protein)
chain: B1 chain with K84A, A85R
B13: R81A: IL-4 mutant, baculovirus expressed (protein)
chain: B1 chain with R81A, A85R
B14: K77A/K12A: IL-4 double mutant (protein, UniProt P05112 25-153, looked up, variant K77A K12A)
Interleukin-4: B1 chain with K12A, K77A, A85R
B15: H74A: IL-4 mutant, baculovirus expressed (protein, UniProt P05112 25-153, looked up, variant H74A)
Interleukin-4: B1 chain with H74A, A85R
B16: E60A: IL-4 mutant, baculovirus expressed (protein)
chain: B1 chain with E60A, A85R
B17: K77A/R88V: IL-4 double mutant (protein, UniProt P05112 25-153, looked up, variant K77A R88V)
Interleukin-4: B1 chain with K77A, A85R, R88V
B18: D87A: IL-4 mutant, baculovirus expressed (protein, UniProt P05112 25-153, looked up, variant D87A)
Interleukin-4: B1 chain with A85R, D87A
B19: K77A/R85A: IL-4 double mutant (protein, UniProt P05112 25-153, looked up, variant K77A R85A)
Interleukin-4: B1 chain with K77A
B20: βc: IL-3, IL-5 and GM-CSF common receptor β extracellular domain fused to flag tag (protein, UniProt P32927 17-443, looked up)
extracellular domain: WERSLAGAEETIPLQTLRCYNDYTSHITCRWADTQDAQRLVNVTLIRRVNEDLLEPVSCDLSDDMPWSACPHPRCVPRRCVIPCQSFVVTDVDYFSFQPDRPLGTRLTVTLTQHVQPPEPRDLQISTDQDHFLLTWSVALGSPQSHWLSPGDLEFEVVYKRLQDSWEDAAILLSNTSQATLGPEHLMPSSTYVARVRTRLAPGSRLSGRPSKWSPEVCWDSQPGDEAQPQNLECFFDGAAVLSCSWEVRKEVASSVSFGLFYKPSPDAGEEECSPVLREGLGSLHTRHHCQIPVPDPATHGQYIVSVQPRRAEKHIKSSVNIQMAPPSLNVTKDGDSYSLRWETMKMRYEHIDHTFEIQYRKDTATWKDSKTETLQNAHSMALPALEPSTRYWARVRVRTSRTGYNGIWSEWSEARSWDTESVLPMW
modifications: extracellular domain Flag tag
notes: IL-3, IL-5 and GM-CSF common receptor β extracellular domain fused to flag tag

Tested on: TF1.8 cells
Test: TF1.8 bioassay of IL-4 mutants (support of proliferation)
Format: cell-based, human
Conditions: IL-4 wt and mutants, TF1.8 cells
Protocol: TF-1.8 cells have been transfected with the firefly luciferase gene contained in the expression vector, pPGK-puromycin-luciferase (Coombe et al., 1998, Supra). The positive transfectants are cloned to produce a line with good luciferase expression. The proliferation assays are carried out in 96-well microplates suitable for such assays Falcon). The wells are flat bottomed, with white sides and a clear bottom. Cells are washed to remove any cytokine in the growth medium and then resuspended in RPMI/5% w/v FCS. The cells are counted with a Coulter Multisizer (Coulter Electronics, England) and routinely 2.5×10^4 cells are added to microplate wells that contain either no IL-4 (negative control) or various dilutions of IL-4. When the effect of HLGAGs, chondroitin sulfate C, or the heparin fractions of a particular length, or heparin fragments of a particular length and structure is to be measured, the wells also contain various concentrations of these molecules.
The cells proliferate for 48 hours at 37° C. in a humidified atmosphere, after which the luciferase activity is measured by the addition of 50 μl of luciferase substrate buffer (50 mm Tris-HCl, pH 7.8, 15 mM MgSO4, 33.3 mM DTT, 0.1 mM EDTA, 0.5 mM Na-luciferin, 0.5 mM ATP, 0.25 mM lithium Co A and 0.5% v/v Triton X-100). Immediately after the addition of the luciferase buffer the plate is assayed for luciferase activity. Light emissions are detected on a Victor 1420 Multilabel counter (Wallac, Turku, Finland).
IL-4 mutants were compared with WT for their ability to support the proliferation of TF1.8 cells. Titration curves were performed for each of the mutants and the concentration needed to support 50% of cell growth was determined.
In the case of B1, the “Conc needed for 50% growth, average” value is reported as 0.71 ng/mL.
In the case of B2, the “Conc needed for 50% growth, average” value is reported as 0.63 ng/mL.
For B3, the “Conc needed for 50% growth, average” value was 0.67 ng/mL.
With B4 the “Conc needed for 50% growth, average” value was 9.39 ng/mL.
For B5, the “Conc needed for 50% growth, average” value was 1.65 ng/mL.
For B6, the “Conc needed for 50% growth, average” value was 76.1 ng/mL.
With B7 the “Conc needed for 50% growth, average” value was 1.01 ng/mL.
In the case of B8, the “Conc needed for 50% growth, average” value is reported as 1.69 ng/mL.
In the case of B9, the “Conc needed for 50% growth, average” value is reported as 11.3 ng/mL.
With B10 the “Conc needed for 50% growth, average” value was 1.55 ng/mL.
For B11, the “Conc needed for 50% growth, average” value was 0.6 ng/mL.
For B12, the “Conc needed for 50% growth, average” value was 2.95 ng/mL.
For B13, the “Conc needed for 50% growth, average” value was 4.85 ng/mL.

Same assay, conditions: compared with WT
For B4, the “proliferative activity of IL-4 mutants” value was “slightly decreased proliferative activity”.
With B6 the “proliferative activity of IL-4 mutants” value was “markedly decreased proliferative activity”.
With B12 the “proliferative activity of IL-4 mutants” value was “slightly decreased proliferative activity”.
In the case of B13, the “proliferative activity of IL-4 mutants” value is reported as “slightly decreased proliferative activity”.

Tested on: not listed separately
Test: BIAcore binding of proteins to heparin immobilised on a biosensor chip
Conditions: not given
Source text: This technology uses the optical phenomenon of surface plasmon resonance to monitor physical interactions between molecules. Passing the protein solution over a sensor surface to which the ligand is coupled monitors the real-time binding of proteins to an immobilized ligand. Detection is achieved by measuring refractive index changes very close to the sensor surface. When the refractive index is altered, the angle at which plasmon resonance occurs changes and this change directly correlates with the amount of protein interacting with the surface. A BIAcore 2000 is conveniently used. It is very sensitive and its microfluidics ensures that only small amounts of material are required.
The HLGAGs are immobilized on the biosensor chip. Intact HLGAGs are biotinylated via amino groups, or reducing termini modified with ammonia by reductive amination, using sulfo-NHS-biotin. Biotinylated HLGAGs are immobilized on streptavidin-coupled sensor chips. Solutions containing proteins of interest are injected over the sensor chip surface, and the binding is measured in real time (Fernig, In: Proteoglycan protocols, Ed. R.V. Iozzo, Humana Press, Totowa, N.J., USA, 2001). […] In all cases binding is specific, as there is little or no interaction with sensor chips lacking heparin with any of the targeted proteins, and binding is inhibited by exogenous heparin. Initial analyzes indicate that the binding of rhIL-5 to heparin has affinity constants of the order from 50-5×10^−9. Because unsubstituted amines are variably present in heparan sulfates from different tissues, an alternative method of biotin labeling is recommended for the heparan sulfate chip. In this case, heparan sulfate is labeled via oxidized cis-diol residues using biotinyl-LC-hydrazine. […]
Binding experiments with these proteins has indicated to which PECAM-1 domains heparin binds. Two binding assays were used: the assay where PECAM-1 is reacted with a BIAcore biosensor chip to which heparin has been immobilised and the second assay is the binding of PECAM-1 to heparan sulfate on the cell surface.
Site directed mutagenesis was performed on IL-4. Basic residues within the proposed heparin binding site were changed to alanine and the proteins expressed using the baculovirus expression system. The one exception was R88 which was changed to valine. Insect cell expressed proteins were purified on an anti-IL-4 affinity column and checked for purity by SDS-PAGE and silver staining. Mutant IL-4 proteins were examined for their ability to bind heparin immobilised on a biosensor chip and binding assessed using a BIAcore 2000.
With B1 the “heparin binding of IL-4 mutant relative to wild type” value was “stronger binding than the wild type”.

Same assay, conditions: IL-4 WT and mutants binding to heparin; in M-1s-1 (unit assumed)
B1 showed a ka of 1.04E+05.
With B14 the ka was 1.65E+04.
B15 showed a ka of 2.05E+04.
With B2 the ka was 3.32E+04.
With B16 the ka was 8.44E+04.
B17 showed a ka of 1.36E+04.
For B18, the ka was 4.42E+04.
In the case of B3, the ka is reported as 4.63E+04.
In the case of B4, the ka is reported as 5.83E+04.
Molecule B5 has a ka of 9.82E+03.
For B6, the ka was 1.72E+05.
With B7 the ka was 5.13E+04.
Work on B8 yielded a ka of 1.26E+04.
B9 showed a ka of 1.79E+04.
In the case of B10, the ka is reported as 6.42E+03.
Work on B11 yielded a ka of 5.03E+04.
B19 showed a ka of 1.51E+04.
With B12 the ka was 3.06E+04.
B13 showed a ka of 2.43E+04.

Same assay, conditions: IL-4 WT and mutants binding to heparin; in s-1 (unit assumed)
B1 showed a kd of 2.42E−03.
In the case of B14, the kd is reported as 3.44E−03.
In the case of B15, the kd is reported as 6.37E−04.
Molecule B2 has a kd of 3.63E−03.
For B16, the kd was 2.76E−03.
With B17 the kd was 1.94E−03.
With B18 the kd was 1.59E−03.
B3 gave a kd of 2.50E−03.
In the case of B4, the kd is reported as 5.40E−03.
Molecule B5 has a kd of 1.55E−03.
For B6, the kd was 8.45E−03.
For B7, the kd was 2.13E−03.
Work on B8 yielded a kd of 2.23E−03.
B9 showed a kd of 3.08E−03.
With B10 the kd was 2.24E−03.
Work on B11 yielded a kd of 3.95E−03.
With B19 the kd was 1.78E−03.
Work on B12 yielded a kd of 2.57E−03.
Work on B13 yielded a kd of 2.37E−03.

Same assay, conditions: IL-4 WT and mutants binding to heparin; read-out: KD
B1 showed a Kd of 23.4 nM.
With B14 the Kd was 209 nM.
Molecule B15 has a Kd of 31.1 nM.
For B2, the Kd was 109 nM.
With B16 the Kd was 32.7 nM.
With B17 the Kd was 142 nM.
For B18, the Kd was 36 nM.
For B3, the Kd was 53.9 nM.
Molecule B4 has a Kd of 92.5 nM.
B5 gave a Kd of 158 nM.
With B6 the Kd was 49.3 nM.
B7 showed a Kd of 41.5 nM.
B8 showed a Kd of 176 nM.
B9 showed a Kd of 172 nM.
With B10 the Kd was 349 nM.
For B11, the Kd was 78.5 nM.
In the case of B19, the Kd is reported as 117 nM.
B12 showed a Kd of 83.9 nM.
For B13, the Kd was 97.8 nM.

Same assay, conditions: recombinant proteins, FIG. 2
With B20 the “binding to immobilized heparin” value was “binds to heparin”.
